In publication PMC7081834:

Biological target: Myc-PTEN wild type (human) (UniProt P60484)
Experiment: native gel or EMSA

A stoichiometry N of 2 was found for “Myc-PTEN wild type, P60484 1-403 (natural protein; other documents disagree on this pair)” in this work.
